Results reported in article PMC10397247.
Values belong to the binder of their own block, whether it stands above or below them.

What was measured:
P12A-bP = molecular target: T1, P12A-bP; test: two-hybrid library CCNG1;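 also: natural log of median RNA to DNA barcode read ratio; higher means stronger binding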
T1 chain: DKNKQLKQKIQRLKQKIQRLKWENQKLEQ

P7A-bP = molecular target: T2, P7A-bP; test: two-hybrid library CCNG1;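 also: natural log of median RNA to DNA barcode read ratio; higher means stronger binding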
T2 chain: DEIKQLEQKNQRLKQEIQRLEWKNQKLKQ

P5A-bP = molecular target: T3, P5A-bP; test: two-hybrid library CCNG1;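 also: natural log of median RNA to DNA barcode read ratio; higher means stronger binding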
T3 chain: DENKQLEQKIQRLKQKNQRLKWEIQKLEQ

P4A-bP = molecular target: T4, P4A-bP; test: two-hybrid library CCNG1;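 also: natural log of median RNA to DNA barcode read ratio; higher means stronger binding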
T4 chain: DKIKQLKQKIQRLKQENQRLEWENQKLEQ

P6A-bP = molecular target: T5, P6A-bP; test: two-hybrid library CCNG1;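 also: natural log of median RNA to DNA barcode read ratio; higher means stronger binding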
T5 chain: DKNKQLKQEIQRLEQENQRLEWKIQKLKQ

P1A-bP = molecular target: T6, P1A-bP; test: two-hybrid library CCNG1;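 also: natural log of median RNA to DNA barcode read ratio; higher means stronger binding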
T6 chain: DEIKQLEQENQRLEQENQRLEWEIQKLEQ

P3A-bP = molecular target: T7, P3A-bP; test: two-hybrid library CCNG1
T7 chain: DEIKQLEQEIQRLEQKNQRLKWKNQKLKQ

P2A-bP = molecular target: T8, P2A-bP; test: two-hybrid library CCNG1
T8 chain: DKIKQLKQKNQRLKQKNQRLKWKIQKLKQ

P8A-bP = molecular target: T9, P8A-bP; test: two-hybrid library CCNG1
T9 chain: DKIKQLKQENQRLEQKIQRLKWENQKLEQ

P11A-bP = molecular target: T10, P11A-bP; test: two-hybrid library CCNG1
T10 chain: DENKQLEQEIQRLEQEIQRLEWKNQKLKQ

4H2691-bN = molecular target: T11, 4H2691-bN; test: two-hybrid library CCNG1
T11 chain: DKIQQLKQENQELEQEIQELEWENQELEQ

4H496-bN = molecular target: T12, 4H496-bN; test: two-hybrid library CCNG1
T12 chain: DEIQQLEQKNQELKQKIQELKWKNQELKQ

4H342-bN = molecular target: T13, 4H342-bN; test: two-hybrid library CCNG1
T13 chain: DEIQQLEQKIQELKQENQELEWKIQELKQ

4H3632-bN = molecular target: T14, 4H3632-bN; test: two-hybrid library CCNG1
T14 chain: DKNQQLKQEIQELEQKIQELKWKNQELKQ

4H2619-bN = molecular target: T15, 4H2619-bN; test: two-hybrid library CCNG1
T15 chain: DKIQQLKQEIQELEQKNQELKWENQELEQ

4H145-bN = molecular target: T16, 4H145-bN; test: two-hybrid library CCNG1; settings: mean of both orientations
T16 chain: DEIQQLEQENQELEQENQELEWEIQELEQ

4H3070-bN = molecular target: T17, 4H3070-bN; test: two-hybrid library CCNG1; settings: mean of both orientations
T17 chain: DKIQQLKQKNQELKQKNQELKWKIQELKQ

P2-AA = molecular target: T18, P2-AA; test: two-hybrid library CCmax; settings: mean of both orientations
T18 chain: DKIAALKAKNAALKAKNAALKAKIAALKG

P2-AA-1HAA-V = molecular target: T19, P2-AA-1HAA-V; test: two-hybrid library CCmax; settings: mean of both orientations
T19 chain: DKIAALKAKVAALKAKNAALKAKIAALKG

P2-AA-1HAA-K = molecular target: T20, P2-AA-1HAA-K; test: two-hybrid library CCmax; settings: mean of both orientations
T20 chain: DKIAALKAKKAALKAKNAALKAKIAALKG

P2-AA-1HAA-E = molecular target: T21, P2-AA-1HAA-E; test: two-hybrid library CCmax; settings: mean of both orientations
T21 chain: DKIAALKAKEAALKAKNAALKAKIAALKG

P2-AA-1HAA-S = molecular target: T22, P2-AA-1HAA-S; test: two-hybrid library CCmax; settings: mean of both orientations
T22 chain: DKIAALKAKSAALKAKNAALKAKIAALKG

P2-AA-1HAA-R = molecular target: T23, P2-AA-1HAA-R; test: two-hybrid library CCmax; settings: mean of both orientations
T23 chain: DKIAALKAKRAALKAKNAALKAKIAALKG

P2-AA-1HAA-D = molecular target: T24, P2-AA-1HAA-D; test: two-hybrid library CCmax; settings: mean of both orientations
T24 chain: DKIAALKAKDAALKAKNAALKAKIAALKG

P2-AA-1HAA-T = molecular target: T25, P2-AA-1HAA-T; test: two-hybrid library CCmax; settings: mean of both orientations
T25 chain: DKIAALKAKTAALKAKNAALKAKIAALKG

P2-AA-1HAA-I = molecular target: T26, P2-AA-1HAA-I; test: two-hybrid library CCmax; settings: mean of both orientations
T26 chain: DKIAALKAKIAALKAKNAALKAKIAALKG

P2-AA-1HAA-Y = molecular target: T27, P2-AA-1HAA-Y; test: two-hybrid library CCmax; settings: mean of both orientations
T27 chain: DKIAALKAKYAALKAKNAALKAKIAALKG

P9A-bP = molecular target: T28, P9A-bP; test: two-hybrid library CCNG1
T28 chain: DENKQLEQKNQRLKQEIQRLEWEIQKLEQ

4H3601-bH = molecular target: T29, 4H3601-bH; test: two-hybrid library CCNG1
T29 chain: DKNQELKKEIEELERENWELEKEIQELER

4H3961-bH = molecular target: T30, 4H3961-bH; test: two-hybrid library CCNG1
T30 chain: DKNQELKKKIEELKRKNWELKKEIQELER

4H363-bH = molecular target: T31, 4H363-bH; test: two-hybrid library CCNG1
T31 chain: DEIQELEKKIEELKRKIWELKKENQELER

4H3297-bN = molecular target: T32, 4H3297-bN; test: two-hybrid library CCNG1
T32 chain: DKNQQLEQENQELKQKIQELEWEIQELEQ

4H3592-bH = molecular target: T33, 4H3592-bH; test: two-hybrid library CCNG1
T33 chain: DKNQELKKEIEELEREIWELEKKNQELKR

4H2745-bH = molecular target: T34, 4H2745-bH; test: two-hybrid library CCNG1
T34 chain: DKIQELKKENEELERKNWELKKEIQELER

4H1072-bH = molecular target: T35, 4H1072-bH; test: two-hybrid library CCNG1
T35 chain: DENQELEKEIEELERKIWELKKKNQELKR

4H1406-bH = molecular target: T36, 4H1406-bH; test: two-hybrid library CCNG1
T36 chain: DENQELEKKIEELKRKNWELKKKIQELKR

4H470-bH = molecular target: T37, 4H470-bH; test: two-hybrid library CCNG1
T37 chain: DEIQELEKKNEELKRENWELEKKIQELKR

4H344-bH = molecular target: T38, 4H344-bH; test: two-hybrid library CCNG1
T38 chain: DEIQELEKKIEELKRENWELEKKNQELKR

4H1387-bH = molecular target: T39, 4H1387-bH; test: two-hybrid library CCNG1
T39 chain: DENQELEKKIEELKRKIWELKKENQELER

4H1193-bH = molecular target: T40, 4H1193-bH; test: two-hybrid library CCNG1
T40 chain: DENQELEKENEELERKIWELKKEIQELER

4H2568-bH = molecular target: T41, 4H2568-bH; test: two-hybrid library CCNG1
T41 chain: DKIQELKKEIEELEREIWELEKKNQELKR

4H1899-bN = molecular target: T42, 4H1899-bN; test: two-hybrid library CCNG1
T42 chain: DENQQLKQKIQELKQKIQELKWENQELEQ

4H3907-bH = molecular target: T43, 4H3907-bH; test: two-hybrid library CCNG1
T43 chain: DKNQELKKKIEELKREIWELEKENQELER

4H4038-bH = molecular target: T44, 4H4038-bH; test: two-hybrid library CCNG1
T44 chain: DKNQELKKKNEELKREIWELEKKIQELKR

4H2619-bH = molecular target: T45, 4H2619-bH; test: two-hybrid library CCNG1
T45 chain: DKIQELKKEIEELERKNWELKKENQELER

P5mSN = molecular target: T46, P5mSN; test: two-hybrid library CCNG1
T46 chain: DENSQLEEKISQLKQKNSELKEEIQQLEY

P11mSN = molecular target: T47, P11mSN; test: two-hybrid library CCNG1
T47 chain: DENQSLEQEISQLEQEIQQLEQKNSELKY

P6mSN = molecular target: T48, P6mSN; test: two-hybrid library CCNG1
T48 chain: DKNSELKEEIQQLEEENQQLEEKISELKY

P2mSN = molecular target: T49, P2mSN; test: two-hybrid library CCNG1
T49 chain: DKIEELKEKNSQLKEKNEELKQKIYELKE

P12mSN = molecular target: T50, P12mSN; test: two-hybrid library CCNG1
T50 chain: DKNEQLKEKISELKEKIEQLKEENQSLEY

P4mSN = molecular target: T51, P4mSN; test: two-hybrid library CCNG1
T51 chain: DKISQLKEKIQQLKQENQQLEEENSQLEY

P8mSN = molecular target: T52, P8mSN; test: two-hybrid library CCNG1
T52 chain: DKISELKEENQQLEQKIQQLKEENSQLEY

P1mSN = molecular target: T53, P1mSN; test: two-hybrid library CCNG1
T53 chain: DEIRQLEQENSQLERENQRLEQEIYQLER

P7mSN = molecular target: T54, P7mSN; test: two-hybrid library CCNG1
T54 chain: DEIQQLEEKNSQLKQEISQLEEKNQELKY

P9mSN = molecular target: T55, P9mSN; test: two-hybrid library CCNG1
T55 chain: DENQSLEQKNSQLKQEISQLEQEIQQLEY

P3mSN = molecular target: T56, P3mSN; test: two-hybrid library CCNG1
T56 chain: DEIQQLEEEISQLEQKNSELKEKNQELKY

Binder: DEIAALEAERAALEAENAALEAEIAALEG [P1-AA-1HAA-R]
- interaction score (P2-AA): 1.76
- interaction score (P2-AA-1HAA-V): 2.29
- interaction score (P2-AA-1HAA-K): 0.734
- interaction score (P2-AA-1HAA-E): 0.63
- interaction score (P2-AA-1HAA-S): 1.28
- interaction score (P2-AA-1HAA-R): 1.34
- interaction score (P2-AA-1HAA-D): 0.454
- interaction score (P2-AA-1HAA-T): 1.95
- interaction score (P2-AA-1HAA-I): 1.99
- interaction score (P2-AA-1HAA-Y): 1.63

Binder: DENKQLEQEIQRLEQEIQRLEWKNQKLKQ [P11A-bP]
- interaction score (P12A-bP): 1.42
- interaction score (P7A-bP): -2.06
- interaction score (P5A-bP): -0.091
- interaction score (P4A-bP): -0.08
- interaction score (P9A-bP): 0.853
- interaction score (P6A-bP): 0
- interaction score (P1A-bP): -0.431
- interaction score (P3A-bP): -2.11
- interaction score (P2A-bP): -0.486
- interaction score (P8A-bP): 0.201
- interaction score (P11A-bP): -0.677

Binder: DENQELEKEIEELERKIWELKKKNQELKR [4H1072-bH]
- interaction score (4H3601-bH): 0.621
- interaction score (4H3961-bH): 0.132
- interaction score (4H363-bH): 0.487
- interaction score (4H3297-bN): 0.827
- interaction score (4H3592-bH): 2.09
- interaction score (4H2745-bH): -0.184
- interaction score (4H1072-bH): 0.311
- interaction score (4H1406-bH): 0.174
- interaction score (4H470-bH): -1.58
- interaction score (4H344-bH): 1.31
- interaction score (4H1387-bH): 1.17
- interaction score (4H1193-bH): 0.426
- interaction score (4H2568-bH): -0.817
- interaction score (4H1899-bN): 1.84
- interaction score (4H3907-bH): 1.52
- interaction score (4H4038-bH): 0.634
- interaction score (4H2619-bH): 1.65

Binder: DEIAALEAEIAALEAENAALEAEIAALEG [P1-AA-1HAA-I]
- interaction score (P2-AA): 2.21
- interaction score (P2-AA-1HAA-V): 1.69
- interaction score (P2-AA-1HAA-E): 1.82
- interaction score (P2-AA-1HAA-S): 2.03
- interaction score (P2-AA-1HAA-R): 2.06
- interaction score (P2-AA-1HAA-T): 1.91
- interaction score (P2-AA-1HAA-I): 2.11
- interaction score (P2-AA-1HAA-Y): 2.08

Second part, the binder after the results:

- interaction score (P12A-bP): -1.01
- interaction score (P7A-bP): -1.19
- interaction score (P5A-bP): -1.01
- interaction score (P4A-bP): -0.87
- interaction score (P6A-bP): -0.83
- interaction score (P1A-bP): 0.96
- interaction score (P3A-bP): -0.806
- interaction score (P2A-bP): -1.7
- interaction score (P8A-bP): -1.35
- interaction score (P11A-bP): 1.25
Binder: DKNKQLKQENQRLEQKIQRLKWKIQKLKQ [P10A-bP]

- interaction score (4H2691-bN): -1.25
- interaction score (4H496-bN): -0.916
- interaction score (4H342-bN): -2.65
- interaction score (4H3632-bN): -1.49
- interaction score (4H2619-bN): -0.87
- interaction score (4H145-bN): -0.563
- interaction score (4H3070-bN): 2.01
Binder: DEIQQLEQENQELEQENQELEWEIQELEQ [4H145-bN]

- interaction score (P5mSN): -0.097
- interaction score (P11mSN): 0.11
- interaction score (P6mSN): -0.793
- interaction score (P2mSN): -1.32
- interaction score (P12mSN): 1.46
- interaction score (P4mSN): 0.374
- interaction score (P8mSN): 0.0166
- interaction score (P1mSN): -0.413
- interaction score (P7mSN): -1.52
- interaction score (P9mSN): -1.27
- interaction score (P3mSN): -0.972
Binder: DENQSLEQEISQLEQEIQQLEQKNSELKY [P11mSN]
